According to the nanobody polyreactivity screen of Harvey et al. (2022):

Assay: yeast display, Sf9 membrane polyspecificity reagent, FACS + sequencing; frameworks hold sequencing errors
In short: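 After 36–48 hours of galactose induction, yeast (Saccharomyces cerevisiae BJ5465) displaying a synthetic nanobody library were stained at 4 °C for 1 hour with 10% biotinylated, detergent-solubilized Sf9 membrane reagent. Streptavidin microbeads enriched the stained cells before FACS sorting into low and high (top ~1%) gates on anti-HA and streptavidin fluorescence. Each clone's polyreactivity label reflects its gate of origin.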

Row | Sequence | polyreactivity (PSR sort gate)
1 | QVQLVESRGGLVQAGGSLRLSCAASGRIFLRNAMVWYRQAPGKERELVASIDRSGGSTYYADSVKGRFTISRDNAKNTVYLQMNSLKPEDTAVYYCAAAYWYLYYYWGQGTQVTVAS | low polyreactivity
2 | QVQLVESGGGLVQAGGSLRLSCAASGSIYGYYVMGWNRQAPGKERELVAAISRSGGSTYYADSVKGRFTISRDNAKNTFYLQMNSLKPEDTGVYYCAASFAVRYPRLDYWGQGTQVTVSS | high polyreactivity
3 | QVQLVESGGGLVQAGCSLRLSCSASGLTFYANAMGWYRQAPGKERELVAAISKSGGNTYYAYSVKGRFTISRDNAKNTVYLQMNSLKPEDTAVYYCAVGYPRGYVDVDSWGQGTQVTVSS | high polyreactivity
4 | QVQLVESGGGLVQAGGSLRLSCAASGRTFQRYAMGWYRQAPGKERELVAAISRGGITYYADSVKGRFTISRDNAKNTVYLQMNSLKPEDTAVYYCAALYRYYHESSPFDYWGQGTQVTVSS | high polyreactivity
5 | QVQLVESGGGLVQAGGSLRLSCAASGSIFGFYGMGWYRQAPGKERELVAAISSRGGSTYYADSVKGRFTISRDNAKNTVYLQMNSLKPEDTAVYYCATERERTMGYWGQGTQVTVSW | high polyreactivity
6 | QVQLVESGGGLVQAGGSLRLSCAASGSIYYNAMGWYRQAPGKERELVASISTGDSTDYADSVKGRFTISRDNAKNTVYLQMNSLKPEDTAVYYCAAVTRLGYWDDYWGQGTQVTVSS | low polyreactivity
7 | QVQLVESGGGLVQAGGSLRLSCAASGFTFRANAMGWYRQAPGKERELFATISRGGPTNYADSVKGRFTISRDNAKNTVYLQMNSLKPADTAVYYCAASFSPYHTDRGDYWGQGTQVTVSS | high polyreactivity
8 | QVQLVESGGGLVQAGGSLRLSCAASGIISSVYAMGWYRPAPGKERELVAAISGSGGSTYYADSVKGRFTISRDNAKNTVYLQMNSLKAEDTAVYYCAKGYQYQGNSYGYWGQGTQVTVSS | low polyreactivity
9 | QVQLVESGGGLVQAGGSLRLSCAASGRIFGGYAMGGDRQAPGKERELVAVISGRGGSTYYADSVKGRFTISRDNAKNTVYLQMNSLKPEDTAVYYCTVYRRIQRYGPQSYDYWGQGTQVTVSS | high polyreactivity
10 | QVQLVESGGGLVQAGGSLRLSCAASGRIFRWNAMGWYRQAPGKERELVAAISSSGGRTYYADSVKGRFTISRDTAKNTVYLQMNSLKPEDTAVYYCAAYPFSDEYDYWGQGTQVTVSS | high polyreactivity
11 | QVQLVESGGGLVQAGGSLRLSCAASGSTFRYYAMGWYRQAPGKERQLVAAISYRGGSTKYADSVKGRFTISRDNAKNTVYLQMNSLKPEDTAVYYCAADSYYDSKRYYWGQGTQVTVSS | high polyreactivity
12 | QVQLVESGGGLVQAGGSLRLSCAASGSTFSWNTMGWYRQAPGKERELVADIRTSGGGTYYADSVKGRFTISRDNAKNSVYLQMNSLKPEDTAVYYCNGDPKWEMVSWGQGTQVTVSS | low polyreactivity
13 | QVQLVESGGGLFQAGGSLRLSCAASGFTFGHNSMGWYRQAPGKERELVAAISYSGGSTYYADSVKGRFTSSRDNAKNTVYLQMNSLKPEDTAVYYCAKRSHTDSVPGVYNEGDFWGQGTQVTVSS | low polyreactivity
14 | QVQLVESGGGLVQAGGSLRLSCAASGRIFLDYVMGWYRQAPGKERELVAAISWSGDRTDYADSVKGRFTISRDNAKNTVYLQMNSLKPEDTAVYYCASTWYFAYSDDYKFDYWGQGTQVTVSS | low polyreactivity
15 | QVQLVESGGGLVQAGGSLRLSCAASGSTCDTNVMGWYRQAPGKERELVAAITTSSSRTYYADSVKGRFTISRDNAKNTGYLQMNSLKPEDTAVYDCAARIHGSWSFDYWGQGTQVTVSS | low polyreactivity
16 | QVQLVESGGGLVQAGGSLRLSCAASGIFPYNAMGWYRQAPGKERELVAAITWSDGSTYYADSVKGRFTISRDNAKNTVYLQMNSLKPEDTAVYYCNTYRNPAEDYWGQGTQVTVSS | low polyreactivity
17 | QVQLVDSGGGLVQAGGILRLRFAASGYTFDKYAMGWYRQKPGKARELVAAITSLGGSKYYADSVKGRFTISRDHAKNTVYLQMNSLKPDVTAVYYCAAEYVAPVPRVHEEMYYWGQGTQVTVSS | high polyreactivity
18 | QVQLVESGGGLVQAGGSLRLSCAASGSIFSFYAMGWYRQAPGKESELVAAISRSGGSTYYADSVKGRFTISRDNAKNTVYLQMNSQKPEDTAVYYCAVYAFSYPRYYYWGQGTQVTVSS | low polyreactivity
19 | QVQLEESGGGLVQAGGSLRLSCAASGIIFGRYTMGWYREAPGKERELVAAITSSGITYYADSVKGRFTISRDNAKNTVYLQMNSLKPEDTAVYYCAADSPVSVTADDGYWGQGTQVTVSS | low polyreactivity
20 | QVQLVESGGGLVQAGCSLRLSCAASGSTVYYKAMGWYREAPGKERELVAAITSGGRTKYADSVKGRFTISRDNAKNTVYLQMNSLKPEDTAVYYCNTYNRRSGTLPKPYDYWGQGTQVTVSS | high polyreactivity
21 | QVKLVESGGGLVQAGGSIRLSCAASGRIFTTYTMGWYRQAPGKERELVAAITRGDRTNYADSVKGRFTISRDNAKNTVYLQMNSLIPEDTAVYYCAAVGNWYYRDPLHSRFYYWGQGTQVTVSS | high polyreactivity
22 | QVQLVEAGGGLVQAGGRLRLSCAASGRIFGRTAMGWYRQAPGKERELGAAIRRSSASTYYADSVKGRFTISRDNAKNTFYLQMNSLKPEDTAVYYCATQSYSYYGYRYRYAAFDYWGQGTQVTVSS | high polyreactivity

Row | Sequence | polyreactivity (PSR sort gate)
23 | QVQLVESGGGLVQAGGSLRLSCAASGRTFPYYAMGWYRQAPGKERELVAAITSGGSTYYADSVKGRFTISRDNAKNTVYLQMNSLKPEDTAVYYCNALLGYYRWRRPVDYSYGSWGQGTQVTVSS | high polyreactivity
24 | QVQLVESGGGLVQAGGSLRLSCAASGINFVGYAMGWDRQAPGKERELVAAISTSSRTYYADSVKGRFTISRDNAKNTVYIQMNSLKPEDTAVYYCNARGTRWYYRHDYWGQGTQVTVSS | high polyreactivity
25 | QVQLVESGGGLVQAGGSLRLSCAASGRTFRYYTMGWYRQAPGKEREFVAAISSTGGTYYADSVKGRFTISRDNAKNTVYLQMNRLKPEDSAVYYCAATFIQVVVNVQLYDYDYWGQGTQVTVSS | low polyreactivity
26 | QVQLVESGGGLVQAGGSLRLSCAASGFILRTNAMGWYRQAPGKERELVAAISVSGGRTYYADSVKGRFTISRDNAKNTVYLQMNSLKPEDTAVYYCAARDSTKLLSGYTHYYWGQGTQVTVSS | high polyreactivity
27 | QVQLVESGGGLVQAGCSLRLRCAASGRIYPYYAMGWYRQAPGKERELVAAIRGGGTSTRYADSVKGRFTISRDNAKKTVDLQMNSLKPSDTADYYCAAVWYSGSTRYSKYLEYYYWGQGTQVTVSS | high polyreactivity
28 | QVQLVESRGGLVQAGGSLRLSCAASGLIFLHNAMGWYRQAPGKERELVAAIRDGDSTNYADSVKGRFTISRDNAKNTVYLQMNSLKPEDTAVYYCAKDPTLVAYAPGRYDYWGQGTQVTVSS | low polyreactivity
29 | QVQLVESGGGLVQAGGSLRLSCAASGRTFVTNAMGWYRQAPGKERELVAAISSNGGSTYYADSVKGRFTISRDNAKNTVFLQMNSLKPEDTAVYYCNAEGQPLYVSWHDHRYIYGFDYWGQGTQVSVSS | low polyreactivity
30 | QDQLVESGGGLVQAGGSLRLSCAASGSTFRHYAMGWYRQAPGKERELVAVISWGGTSTYYADSVKGRFTISRDNAKNTVYLQMNSLKPEDTAVYYCNKAYFPIFKGYEMYYWGQGTQVTVSS | low polyreactivity
31 | QVQLVESGGGLFQAGGSLRLSCAASGGIFSLYAMGWYRQAPGTERELVAVISSTCSTHYADSVKGRFTISRDNAKKTVSLLMNSLKPEDTAVYYCNADARTSRKKFGYWGQGTQVTVSS | low polyreactivity
32 | QVQLVESGGGLVQAGGSLRLSCAASGNTFVYYAMGWYRQAPGKERELVAGISRRSGSTYYADSVKGRFTISRDNAKNTVYLQMNSLKPEDTAVYYCAKGRTYLDADDYWGQGTQVTVSS | low polyreactivity
33 | QVQLVESGGGLVQAGGSLRLSCAASGSTFRYNALGWYRQAPGKERELVAAINYRGGSTYYADSVKGRFTISRDNAKNTVYLQMNSLKPEDTAVYYCNAVLPLAKYEYDSWGHGTQVTVSS | high polyreactivity
34 | QVQLVESGGGLVQAGGRLRLSCAASGRIFWTYAMGWYRQAPGKERELVAAISSGGSTNYADSVKGRFTISRDNAKNTVYLQMNSLKPEDTAVYYCAADRWYREYDYWGQGTQVTVSS | low polyreactivity
35 | QVQLVESGGGLVQAGGSLRLSCAASGRIFYYNDMGWYRQAPGKERELVATITIGNSTNYADSVKGRFTISRDNAKNTVYLQMNSLKPEDTAVYYCNADYSDVTTGDWRYENDYWGQGTQVTVSS | low polyreactivity
36 | QVQLVESGGGLVQAGGSLRLRCAASGSNFKHNDMGWSRPAPGKERELVAAISRSGGSTYYADSVKGRFTISRDNGKNTVYLPMNSLKPEDTAVYYCNAGRRTGRYGYWGQGTQVTVSS | high polyreactivity
37 | QDQLVESGGGLVQAGGSLRLSCAASGFTFGWYAMGWYRQAPGKERELVAAITSRGGSTYYPDSVKGRFTISRDNAKNTVYLQMNSLKPEDTAVYYCAALYGWSGYDYWGQGTQVTVSS | high polyreactivity
38 | QVQLVESGGGLVQAGGSLRLSCAASGSIFGSYAMGWYRQAPGKERELVAAISKSGGNTYYADSVKGRFTISRDNAKNTVYLQMNSLKPEDTAVYYCAAYGFYRWRGYDYWGQGTQVTVSS | high polyreactivity
39 | QVQLVESWGGLVHAGGSLRLSCAASGSTFAGYAMGWYRKATGTERELVATITYSGGSTYYADSVKGRFTISRDNAKNTVYLQMNSLKTEDTAVYYCAKKASYWWGYEYWGQGTQVTVSS | low polyreactivity
40 | QVQLVESGGGIVQAGGSLRLSCAASGFTFVNNAIGWYRQAPGKERELVASITRRGGRTYYADSVKGRFTISRDNAKNTVYLQMNSLKPEDTAVYYCAVQGYGWGPLGYAEYDYWGQGTQVTVSS | high polyreactivity
41 | QVQLVESGGGLVQAGGSLRLSCAASGRIFGWYAMGWYRQAPGKEREFVAAITVTGGSTYYADSVKGRFTISRDNAKNTVYLQMNSLKPEDTALYYCAADRWYTRTGFDYWGQVTQVTVSS | low polyreactivity
42 | QVQLVESGGGLVQAGGSLRLSCAASGRIFVAYAMGWYRQAPGKERELVADIDYIDGSTYYADSVKGRFTISRDNAKNTVYLQMNSLKPEDTAVYYCAVDSLYYAGYYDYWGQGTQVTVSS | high polyreactivity
43 | QVQLQESGGGLVQAGGSLRLSCAASGFIFARNYIGWYRQAPGKERELVAGIGEGASTNYADSVKGRFTISRDNAKNTVYLQMNSLEPEDTAVYYCAVGDTVLGYHYYWGQGTQVTVSN | low polyreactivity
